Data on eight sequences can be found in patent publication US20070185028A1, “Compositions and methods for treatment of protein misfolding and protein aggregation diseases” (priority 2004, published 2007).

The target in experiment [1] is T1, α-synuclein (Homo sapiens, UniProt P37840).
T1 construct: purchased rPeptide
The experiment in a line: α-synuclein fibrillation ThT assay. It counts as biochemical. The following applies: for change of ThT fluorescence of α-synuclein: concentration increased to 46 μM. The method, then:
The effect of the five αB crystallin peptides, ST, DR, HG, LT, and ER on as synuclein fibrillation was measured using the ThT fluorescence assay (FIG. 28). The formation and inhibition of α-synuclein fibrils was qualitatively verified by fluorescence and bright-field microscopy. The concentration of the peptides was varied relative to α-synuclein to establish a concentration curve. In addition, the effect of a control neuropeptide (AT1) with no α-synuclein fibril inhibition activity was measured and compared to the effect of the αB crystallin peptides on α-synuclein fibrillation. The ThT fluorescence of 46 μM α-synuclein alone incubated at 37° C. for 96 hrs, increased from ˜9,500 to ˜16,000 RFU. Addition of 9.2 μM αB crystallin peptides ST, DR, HG, LT, and ER decreased the ThT fluorescence of α-synuclein by 32-100%. When the concentration of the αB crystallin peptides was increased to 46 μM, the ThT fluorescence of α-synuclein decreased with the αB crystallin peptides, DR, HG, LT, and ER, while the ThT fluorescence increased with the ST peptide. […] The negative control peptide AT1 had no effect on α-synuclein fibrillation even at a concentration as high as 460 μM. All five αB crystallin peptides inhibited α-synuclein fibrillation at sub-stoichometric and stoichometric concentrations (9.2 μM and 46 μM).
The Thioflavin T (ThT) fluorescence of 46 μM α-synuclein in the presence of varying concentrations of αB crystallin peptides and controls was measured. […] When the concentration of the peptides was increased to […] (1:1::peptide:α-synuclein), the αB crystallin peptides DR, HG, LT and ER decreased the ThT fluorescence by 51-100%, while the ST peptide had no effect on ThT fluorescence. When the concentration of the peptides was increased further to […] (10:1::peptide:α-synuclein), the five αB crystallin peptides decreased the ThT fluorescence by 40-100%. […] The formation and inhibition of β2-microglobulin fibrils was verified microscopically.
α-synuclein fibrillation ThT assays were performed as described previously. Zhu et al., J Biol Chem 279:26846-57, 2004; Dedmon et al., J Biol Chem 280:14733-40, 2005. Peptides were dissolved to 2 mM in 0.25% DMSO and diluted accordingly, while α-synuclein was dissolved in 20 mM Tris-Cl, 100 mM NaCl, pH 7.4. For the 5:1::peptide: α-synuclein assay, 5 μL of 700 μM peptide or APS was mixed with 5 μL of 140 μM α-synuclein, 17 μt of 20 mM Tris-Cl, 100 mM NaCl, pH 7.4 and 3 μL of 1 mM ThT. For the 1:1::peptide:α-synuclein assay, 5 μL of 140 μM peptide was mixed with 5 μL of 140 μM α-synuclein, 17 μl of 20 mM Tris-Cl, 100 mM NaCl, pH 7.4 and 3 μL of 1 mM ThT. For the 1:5::peptide:α-synuclein assay, 5 μL of 28 μM peptide was mixed with 5 μL of 140 μM α-synuclein, and […] of 20 mM Tris-Cl, 100 mM NaCl, pH 7.4 and 3/L of 1 mM ThT. ThT fluorescence was measured using a Perkin Elmer Victor^3 V plate reader. Assays were performed in 384-well fluorescence plates in duplicates or triplicates. Samples were incubated at 37° C. for a total of 96 hours. ThT fluorescence was measured at 0, 24, 48, and 96 hours. The effect of the peptides and APS was calculated as percentage fibril formation relative to α-synuclein alone (100%) at the end of 96 hours.

Experiment [2] deals with beta amyloid (Homo sapiens, UniProt P05067). The experiment in a line: αB crystallin protein pin array, binding of beta amyloid. To be noted: immobilized 8-mer peptide; absorption at 450 nm.

On to DRFSVNLDVKHFS, for which, in experiment [1], the “effect on α-synuclein fibril formation, overall” value is “most effective inhibitor” and the “change of ThT fluorescence of α-synuclein” value (“change” for short) is on record as “decreased”.
On to ERTIPITRE, for which the “change” value in experiment [1] was “decreased”.
As to FSVNLDVK [Peptide 38], in experiment [2], the “binding of beta amyloid in the protein pin assay” value (“binding of beta amyloid” for short) is given as “positive”.
As to HGKHEERQDE, in experiment [1], the “effect on α-synuclein fibril formation, overall” value is recorded as “most effective inhibitor” and the “change” value is “decreased”.
As for LTITSSLS [Peptide 66], the “binding of beta amyloid” value in experiment [2] was “positive”.
With LTITSSLSSDGV, the “change” value in experiment [1] is listed as “decreased”.
STSLSPFYLRPPSFLRAP: the “decrease in ThT fluorescence of α-synuclein” value in experiment [1] (16 μM (1:1::peptide:α-synuclein) as printed) was “no effect”. Also, in experiment [1], the “change” value is recorded as “increased”.
For WIRRPFFP [Peptide 5], the “binding of beta amyloid” value in experiment [2] was “positive”.
